Test: soluble fraction after stress (log2 fold change); higher = more stays soluble; pooled small domains, quantitative proteomics
Conditions: stress: 50 degC
Method in brief: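 Quantitative proteomics served as the high-throughput read-out for pooled custom libraries of small protein domains. Each was stressed at 50°C. Aggregation propensity is expressed as the base-two log fold change in soluble protein after stress. A higher value means a larger share of the protein remains in solution.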

Sequence | soluble fraction (log2)
HMEAISSESIKKMIKSYVSGEDASKPLSDQQIADLLVKEGYMISRRTVAKYRDELGILSSSKRKR | -0.0456
HMEITRDTVIQWLEAERRSQTWLSKQLGVSVQAVSNWLREKNPQTISASAQITIRALMEEDAAK | -0.42
HMSAMKYTSEVFQRLSRGQFISSNSIDAETRAIYSDIEENQQEYEDYFSKIDFLLSSGDGFYYFSRK | -2.4
HMTVLPTEQDAKALVGLGEEEAAKIVEGNGWTYRIGSRDGEQFMLTEDFVTSRLTLGIEKAIVMTATI | -0.915
HMHSLGDQVFETIKELIVNNTYQPGELLQIDKLAAEFGVSTTPVREALLRLEGLGLVDIERNKAAVVT | -0.112
HMYDESVFTGEYHYYYEKLSDDDKLIYRQIYAMMQKRMDGISLNTTDTDNVSRIQQFVLLDNPQF | -3.04
HMSIEIKTIDVKHADLFQLQDILRNLYPELNIVPDQRNNKLILQGKRELLVEAERLTLQLDTE | 0.0556
HMNVAVSEADAKAAALERVSGATEADIRMELELDDGYYVYEGDIIYQQKEYEFEIDAQTGKFLKWSEER | -0.14
HMAERLQARIDAPGVRLDKALAETFPTLSRARLQALLADGAVTRDGQTVSNGSAKAQPGLYVVALPPVA | 0.381
HMSHGYVEMQAKDDQVLLAALKNHPWFEKVSIDEETGLTKAILTQPIEAEELNSMLFEKGIVLSHLVKRK | 0.234
HMNFEIEVTENGKRIDSYLAEELDLSRSKVQKLIKQELVTVNGKVVSNNYNVKLGDTILVNDD | 0.0352
HMETIELSAPGGVRLDKLIADGTELSRSAAVKLIEQGNVLVNGSPAGKKDIPAAGAAVEITLPEPQ | -0.134
HMQQISDPQVLRPMAEEVLHQSQKVVQDYKGGNKNAFHALVGQMMKKTQGKGNPQVIGQVLSELLDE | 0.476
HMRMLSEGAQRMLRGLAVLEEASADRLLELHQGDYPGFVRSLFALESAGLFQRNGSGTWIRR | -0.819
HMSQVHYAVLFKNASAAEATEIVTYARETLGVQDIKINANGDILVPEDKVEEMRVSMSIAGFPK | 0.22
HMQQQLLHIVFGGELKDVTGIEFEDLSKMDFVGAFSNYKDAYDAWKSAAQRTVDHAEMRYFILHAHKLL | -5.48
HMHGSSSTVPPVKGLSFEQARLTLAENDLTVEISDSIYDRNARPGTVVESWPRAGSVVKQGRQVYVTVTAF | -0.922
HMGSALLEAGADDAGQRLDQWLAAKLGPSISRSRVQALIKQGAVLVGGKPAGEAKRKLVAGDVVSVALPEP | 0.0853
HMSDDAVVRMRVPEDALGLSLRETDFRQRFGVYVLAIETRDGKLLAPPDPQRPLGKDDVLVVIQKR | -0.138
HMSLLQTRQRHEALAALGFFKGDVAAEWSAASTEALRAAQASLGIRVDGKWGPQTEDAIGKALAERQG | -0.102
HMPQPEIEIAAVVPYSAGALLSRIHDDGELLAPVEYRGEGVFVHARVPADIEAAMRRGGMLSPAET | 0.0913
HMAASEAESIRILLSEGVDRVHLRKPQSAEADMRRLIEALPPELYPRLTLQDHLHLAGEYGT | 0.0186
HMNGTGSVYKLSGKRRNPWRAVVTNGWAYNEEKGKLVQNRVTIGYYHTRDEAIQAIANYNSSP | -1.52
HMSFTSQSVLIEIVRGTTQLTPLAAAVGANKREVVLAVHRLKQRGLVVSAGLGQYAATEAGRAFLTAGREV | -2.76
HMSTTGIVKWFNEEKGFGFITQDQGGADVFVHYRAIASEGFKTLAEGQKVSFEVEQGQKGLQAANVQA | 0.0843
HMDQHERQQLLIHIAGGEREALAELYQRTRSAVYGLALSYLKNAHDAQDLTRDVYVQVWDRA | 0.344
HMEGTVQQDKFDAYKAKFEDAISNDLNTSMAITIIYDLLKDDMNDKTKLALINDFDKVLSLNLTTA | -0.255
HMLKDQSIAQLEKNLDDLKGLMRKMFGSSDVPKITKMISDIESSLANFNQSKANKLIVQTTNYISSKL | -0.36

From the domain aggregation screens of Martell et al. (2025)
